Assay results from US12319739 (F STAR DELTA, dated 2025).
Positions count from the first letter of the chain named.

T1: cMSLN-His-Avi (cynomolgus, single biotin on the Avi tag in the biotinylated form)
T1 construct: Monomeric; also called cyno MSLN-His-Avi; cMSLN-Avi-His
T1 chain: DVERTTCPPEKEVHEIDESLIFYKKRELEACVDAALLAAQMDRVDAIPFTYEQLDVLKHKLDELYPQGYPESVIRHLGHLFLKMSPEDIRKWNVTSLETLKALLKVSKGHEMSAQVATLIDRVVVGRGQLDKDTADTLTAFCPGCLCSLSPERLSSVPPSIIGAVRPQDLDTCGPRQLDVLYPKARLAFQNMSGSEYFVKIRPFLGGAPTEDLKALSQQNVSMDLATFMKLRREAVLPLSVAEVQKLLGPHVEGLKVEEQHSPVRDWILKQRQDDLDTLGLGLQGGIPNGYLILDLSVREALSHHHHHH

B1: FS22-172-003-AA/FS28-256-024 (bispecific antibody, human IgG1, kappa, L234A L235A, V domains shown)
VH: EVQLLESGGGLVQPGGSLRLSCAASGFTFTHTYMSWVRQAPGKGLEWVSNISPTYSTTNYADSVKGRFTISRDNNKNTLYLQMNSLRAEDTAVYYCARYNAYHAALDYWGQGTLVTVSS
VL: EIVLTQSPGTLSLSPGERATLSCRASQSVSSSYLAWYQQKPGQAPRLLIYGASSRATGIPDRFSGSGSGTDFTLTISRLEPEDFAVYYCQQALGYPHTFGQGTKVEIKR
notes: IgG1 mAb^2 with LALA
B2: FS22-172-003-AA/FS28-256-026 (bispecific antibody, human IgG1, kappa, L234A L235A, V domains shown)
VH: B1 VH with H31Q, N75S, H103Q, A104I, A105G
VL: B1 VL
notes: IgG1 mAb^2 with LALA
B3: FS22-172-003-AA/FS28-256-027 (bispecific antibody, human IgG1, kappa, L234A L235A, V domains shown)
VH: B1 VH
VL: B1 VL with A92T, L93V, G94P, H97Y
notes: IgG1 mAb^2 with LALA
B4: FS22-172-003-AA/FS28-256-272 (bispecific antibody, human IgG1, kappa, L234A L235A, V domains shown)
VH: B1 VH with N50H
VL: B1 VL with A92T, L93V, G94P, H97Y
notes: IgG1 mAb^2 with LALA
B5: FS22-172-003-AA/FS28-256-273 (bispecific antibody, human IgG1, kappa, L234A L235A, V domains shown)
VH: B1 VH with N50S
VL: B1 VL with A92T, L93V, G94P, H97Y
notes: IgG1 mAb^2 with LALA
B6: FS28-256-274 (in CD137 mAb^2 format) (bispecific antibody, V domains shown)
VH: B1 VH with N50T
VL: B1 VL with A92T, L93V, G94P, H97Y
notes: Position 55 is IMGT numbering
B7: 20H4.9 (antibody, V domains shown)
VH: QVQLQQWGAGLLKPSETLSLTCAVYGGSFSGYYWSWIRQSPEKGLEWIGEINHGGYVTYNPSLESRVTISVDTSKNQFSLKLSSVTAADTAVYYCARDYGPGNYDWYFDLWGRGTLVTVSS
VL: EIVLTQSPATLSLSPGERATLSCRASQSVSSYLAWYQQKPGQAPRLLIYDASNRATGIPARFSGSGSGTDFTLTISSLEPEDFAVYYCQQRSNWPPALTFGGGTKVEIKR

What was measured:
cMSLN-His-Avi = target: T1, cMSLN-His-Avi; experiment: SPR, mAb2 captured on Protein G, cMSLN-His-Avi in solution
Procedure: (§1) The association time was 5 min and the dissociation time was 5 min. Running buffer was HBS-EP (GE Healthcare BR100188). Flow cells were regenerated by injecting Glycine-HCl pH2.1 at a flow rate of 30 μl/min for 15 seconds. The data was analysed as described in Example 7.1.

[1] = target: T2, human CD137 on primary human CD8+ T cells (human, UniProt Q07011 24-255); experiment: cell-based or functional assay
T2 sequence (Q07011 24-255): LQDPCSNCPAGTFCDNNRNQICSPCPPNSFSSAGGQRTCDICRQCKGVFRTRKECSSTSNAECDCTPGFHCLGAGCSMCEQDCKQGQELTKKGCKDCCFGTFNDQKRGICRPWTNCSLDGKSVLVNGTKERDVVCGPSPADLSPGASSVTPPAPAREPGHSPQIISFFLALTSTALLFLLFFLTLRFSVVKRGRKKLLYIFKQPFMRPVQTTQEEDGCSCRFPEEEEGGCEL

hMSLN-His-Avi [2] = target: T3, hMSLN-His-Avi (human, UniProt Q13421 296-598, single biotin on the Avi tag in the biotinylated form); experiment: SPR, mAb2 captured on Protein G, hMSLN-His-Avi in solution
T3 construct: Monomeric; also called human MSLN-His-Avi; hMSLN-Avi-His
T3 sequence (Q13421 other isoform, or with tags, fused parts or gaps): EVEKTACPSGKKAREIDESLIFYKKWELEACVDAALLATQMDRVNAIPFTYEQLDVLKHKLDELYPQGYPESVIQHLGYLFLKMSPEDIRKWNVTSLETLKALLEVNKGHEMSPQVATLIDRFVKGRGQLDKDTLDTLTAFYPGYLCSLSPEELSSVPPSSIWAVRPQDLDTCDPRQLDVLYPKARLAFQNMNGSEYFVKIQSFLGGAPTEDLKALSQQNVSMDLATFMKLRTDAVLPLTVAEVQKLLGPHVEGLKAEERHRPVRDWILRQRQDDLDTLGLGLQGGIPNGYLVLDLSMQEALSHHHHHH
Procedure: as §1

[3] = target: T4, endogenous cell surface human MSLN (human, UniProt Q13421 296-598); experiment: flow cytometry, NCI-H226 cells + 20 nM soluble MSLN
T4 construct: whole, on cells; The cell line is named under assay; also called cell-surface MSLN on NCI-H226, OVCAR-3 and AsPC-1 cells
T4 sequence (Q13421 other isoform, or with tags, fused parts or gaps limits assumed): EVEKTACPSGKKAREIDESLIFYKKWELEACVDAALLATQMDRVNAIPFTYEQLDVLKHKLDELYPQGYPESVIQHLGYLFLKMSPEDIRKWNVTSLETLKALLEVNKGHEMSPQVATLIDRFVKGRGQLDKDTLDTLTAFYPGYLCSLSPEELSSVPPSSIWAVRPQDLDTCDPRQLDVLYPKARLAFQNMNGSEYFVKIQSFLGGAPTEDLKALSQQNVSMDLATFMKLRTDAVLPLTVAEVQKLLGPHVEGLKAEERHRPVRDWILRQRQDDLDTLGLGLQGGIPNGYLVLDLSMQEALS
Procedure: (§2) To confirm binding to cell surface MSLN, mAb² listed in Table 9 were analysed for binding to endogenous cell surface MSLN on the human lung cancer cell line NCI-H226. In addition, and because MSLN can be found in blood in a shed soluble form, there is a risk that this circulating MSLN might affect exposure and ultimately potency of our mAb². To confirm that presence of soluble MSLN has minimal impact, additional binding experiments to NCI-H226 cells were performed in the presence of 20 nM soluble MSLN which is 10-20 times the level of soluble MSLN found to be of diagnostic value for defining malignant mesothelioma and lung cancer patients as MSLN positive (Cui et al., 2014). Briefly, NCI-H226 cells (ATCC CRL-5826) were harvested from T175 cell culture flasks using Accutase (Gibco, A11105-01).
(§3) In both cases, cells were centrifuged at 1200 rpm for 3 min and resuspended in ice cold FACS buffer made up of DPBS (Life Technologies, 14190169) and 1% BSA (Sigma-Aldrich, A7906) at 2×10⁶ cells/ml and 50 μl per well was seeded in a 96-well V-bottom plate (Costar, 3894). All antibodies tested were diluted in FACS buffer in 120 μl at a concentration range of 0.01-200 nM (4-fold dilutions). The NCI-H226 cells were then centrifuged, supernatant removed and cells resuspended in 100 μl of each mAb dilution and incubated at 4° C. for 45 min. Cells were washed twice by centrifugation with 150 μl FACS buffer, resuspended in 100 μl containing goat anti-human IgG (γ-chain specific) F(ab')2 fragment-R-Phycoerythrin antibody (Sigma, P8047) diluted 1:1000 in FACS buffer and incubated at 4° C. for 45 min. The cells were washed once with 150 μl FACS buffer and then with 150 μl DPBS, resuspended in 150 μl DPBS containing DAPI (Biotium, 40043) at 1:10.000 and read on the BDCantoII or iQue (Intellicyt).

hMSLN-His-Avi [4] = target: T3, hMSLN-His-Avi; experiment: SPR, hMSLN-His-Avi immobilised ~100 RU, mAb2 injected
Procedure: (§4) 7.1 Binding of CD137/MSLN mAb2 to Human MSLN Under Avid Conditions—Antigen Capture Method Binding of all mAb^2 to MSLN immobilised on a BIAcore chip was tested to determine the binding affinity to human MSLN under avid conditions, where a high concentration of immobilised antigen is available to allow the antibody to bind avidly. […] The association time was 5 min and the dissociation time was 10 min. Running buffer was HBS-EP (GE Healthcare BR100188). Flow cells were regenerated by injecting Glycine-HCl pH1.5 at a flow rate of 30 μl/min for 30 seconds. Data were analysed by double referencing against a flow cell which was intentionally left blank (no antigen coating). The binding kinetics were fitted with a 1:1 Langmuir model to generate binding association (k_a) and dissociation (k_d) rates. Equilibrium binding constants (K_D) were calculated by dividing the dissociation rate by the association rate for each sample. Data analysis was performed with BiaEvaluation software version 3.2.

hMSLN-His-Avi [5] = target: T3, hMSLN-His-Avi; experiment: ratio of SPR KDs
Procedure: as §4, §1

[6] = target: T4, endogenous cell surface human MSLN; experiment: flow cytometry, NCI-H226 cells
Procedure: as §2, §3

[7] = target: T2, human CD137 on primary human CD8+ T …; experiment: cell-based or functional assay; remark: listed apart in the source
[8] = target: T2, human CD137 on primary human CD8+ T …; experiment: cell-based or functional assay; remark: listed apart in the source
hMSLN-His-Avi [9] = target: T3, hMSLN-His-Avi; experiment: SPR, hMSLN-His-Avi immobilised
hMSLN-His-Avi [10] = target: T3, hMSLN-His-Avi; experiment: SPR, hMSLN-His-Avi in solution
hMSLN-His-Avi [11] = target: T3, hMSLN-His-Avi; experiment: ratio of SPR KDs; remark: listed apart in the source

Binder | Kd (cMSLN-His-Avi) [nM] | Emax (IL-2 pg/ml), NCI-H226 co-culture, Donor A [1] [pg/mL] | Emax (IL-2 pg/ml), NCI-H226 co-culture, Donor B [1] [pg/mL] | IL-2 release EC50, NCI-H226 co-culture, Donor A [1] [nM] | IL-2 release EC50, NCI-H226 co-culture, Donor B [1] [nM] | Kd (hMSLN-His-Avi [2]) [nM] | EC50 [3] [nM] | Emax (MFI) [3] [MFI] | Kd (hMSLN-His-Avi [4]) [nM] | KD ratio in solution/immobilised human MSLN (hMSLN-His-Avi [5]) | EC50 [6] [nM] | Emax (MFI) [6] [MFI] | fold change of IL-2 EC50 with 20 nM sMSLN against none, NCI-H226 co-culture [7] [fold] | IL-2 release EC50, NCI-H226 co-culture, +2 nM sMSLN [8] [nM] | IL-2 release EC50, NCI-H226 co-culture, +20 nM sMSLN [8] [nM] | IL-2 release EC50, NCI-H226 co-culture, no sMSLN [8] [nM] | Kd (hMSLN-His-Avi [9]) [nM] | Kd (hMSLN-His-Avi [10]) [nM] | ratio of KD in solution/immobilised (hMSLN-His-Avi [11]) | IL-2 release EC50, CD8+ T cell assay [7] [nM]
B1 | 57.2 | 2120 | 1090 | 1.29 | 0.61 | 86.6 | 5.24 | 675000 | 4.74 | 18 | 3.4 | 647000 |  |  |  |  |  |  |  | 
B2 | 33.1 | 2060 | 932 | 0.67 | 0.23 | 57.9 | 2.68 | 688000 | 3.19 | 18 | 1.47 | 634000 |  |  |  |  |  |  |  | 
B3 | 1.06 | 2110 |  | 0.05 |  | 5.84 | 2.31 | 686000 | 0.78 | 7 | 0.613 | 801000 | 6.6 |  |  |  |  |  |  | 
B4 |  |  |  |  |  | 7.6 |  |  | 10.7 | 0.7 |  |  | > 4 | 0.13 | 0.684 | 0.122 | 10.7 | 7.6 | 0.7 | 
B5 |  |  |  |  |  | 7.4 |  |  | 6 | 1.2 |  |  | > 4 | 0.0616 | 0.366 | 0.0791 | 6 | 7.4 | 1.2 | 
B6 |  |  |  |  |  |  |  |  |  |  |  |  |  |  |  |  | 19.8 | 55.9 | 2.8 | 
B7 |  |  |  |  |  |  |  |  |  |  |  |  |  |  |  |  |  |  |  | 0.5
